Like-named read-outs stand apart in the source and are kept apart here.
Key:
Assay in all cases: two-hybrid library CCmax;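 also: natural log of median RNA to DNA barcode read ratio; higher means stronger binding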
4H3974-AA = target: T1, 4H3974-AA; conditions: mean of both orientations
T1 chain: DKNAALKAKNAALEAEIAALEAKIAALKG

4H3595-AA = target: T2, 4H3595-AA; conditions: mean of both orientations
T2 chain: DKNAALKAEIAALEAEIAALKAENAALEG

4H464-AA = target: T3, 4H464-AA; conditions: mean of both orientations
T3 chain: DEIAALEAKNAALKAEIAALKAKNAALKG

4H_APH = target: T4, 4H_APH; conditions: mean of both orientations
T4 chain: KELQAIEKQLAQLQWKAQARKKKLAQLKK

4H3625-AA = target: T5, 4H3625-AA; conditions: mean of both orientations
T5 chain: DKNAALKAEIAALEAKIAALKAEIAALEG

4H3587-AA = target: T6, 4H3587-AA
T6 chain: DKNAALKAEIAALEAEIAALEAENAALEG

4H3414-AA = target: T7, 4H3414-AA; conditions: mean of both orientations
T7 chain: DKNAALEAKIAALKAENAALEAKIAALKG

4H63-AA = target: T8, 4H63-AA; conditions: mean of both orientations
T8 chain: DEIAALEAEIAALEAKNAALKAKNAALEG

4H380-AA = target: T9, 4H380-AA; conditions: mean of both orientations
T9 chain: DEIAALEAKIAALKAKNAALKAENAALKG

4H337-AA = target: T10, 4H337-AA
T10 chain: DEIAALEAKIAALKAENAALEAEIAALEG

4H3449-AA = target: T11, 4H3449-AA; conditions: mean of both orientations
T11 chain: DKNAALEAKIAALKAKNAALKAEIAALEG

4H3129-AA = target: T12, 4H3129-AA; conditions: mean of both orientations
T12 chain: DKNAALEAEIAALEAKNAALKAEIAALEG

O14-AA = target: T13, O14-AA; conditions: mean of both orientations
T13 chain: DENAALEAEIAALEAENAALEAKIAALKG

4H324-AA = target: T14, 4H324-AA; conditions: mean of both orientations
T14 chain: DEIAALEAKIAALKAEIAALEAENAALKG

4H446-AA = target: T15, 4H446-AA; conditions: mean of both orientations
T15 chain: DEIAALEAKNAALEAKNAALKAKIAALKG

4H32-AA = target: T16, 4H32-AA
T16 chain: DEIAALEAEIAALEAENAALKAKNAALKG

4H3049-AA = target: T17, 4H3049-AA
T17 chain: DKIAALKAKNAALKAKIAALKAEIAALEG

4H3777-AA = target: T18, 4H3777-AA; conditions: mean of both orientations
T18 chain: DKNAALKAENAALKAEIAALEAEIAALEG

4H510-AA = target: T19, 4H510-AA; conditions: mean of both orientations
T19 chain: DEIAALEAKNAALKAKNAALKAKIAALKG

4H3939-AA = target: T20, 4H3939-AA; conditions: mean of both orientations
T20 chain: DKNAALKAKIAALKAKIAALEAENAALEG

4H3619-AA = target: T21, 4H3619-AA; conditions: mean of both orientations
T21 chain: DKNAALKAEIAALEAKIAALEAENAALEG

4H384-AA = target: T22, 4H384-AA
T22 chain: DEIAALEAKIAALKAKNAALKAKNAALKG

4H_GCN4 = target: 4H_GCN4
O11-AA = target: T23, O11-AA; conditions: mean of both orientations
T23 chain: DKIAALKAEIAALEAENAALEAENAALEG

4H483-AA = target: T24, 4H483-AA; conditions: mean of both orientations
T24 chain: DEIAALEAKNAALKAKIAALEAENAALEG

4H3969-AA = target: T25, 4H3969-AA; conditions: mean of both orientations
T25 chain: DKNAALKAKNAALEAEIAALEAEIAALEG

4H3782-AA = target: T26, 4H3782-AA; conditions: mean of both orientations
T26 chain: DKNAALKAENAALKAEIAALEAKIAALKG

4H43-AA = target: T27, 4H43-AA; conditions: mean of both orientations
T27 chain: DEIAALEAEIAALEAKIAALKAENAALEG

4H3629-AA = target: T28, 4H3629-AA; conditions: mean of both orientations
T28 chain: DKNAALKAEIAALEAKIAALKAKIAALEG

4H3094-AA = target: T29, 4H3094-AA; conditions: mean of both orientations
T29 chain: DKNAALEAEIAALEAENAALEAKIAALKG

O13-AA = target: T30, O13-AA; conditions: mean of both orientations
T30 chain: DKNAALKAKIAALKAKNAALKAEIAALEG

GCN2_T = target: GCN2_T
4H3915-AA = target: T31, 4H3915-AA; conditions: mean of both orientations
T31 chain: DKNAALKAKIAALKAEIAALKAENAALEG

4H3590-AA = target: T32, 4H3590-AA; conditions: mean of both orientations
T32 chain: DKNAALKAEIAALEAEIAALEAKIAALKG

4H432-AA = target: T33, 4H432-AA; conditions: mean of both orientations
T33 chain: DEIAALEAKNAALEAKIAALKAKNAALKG

4H4038-AA = target: T34, 4H4038-AA; conditions: mean of both orientations
T34 chain: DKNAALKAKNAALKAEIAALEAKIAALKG

4H341-AA = target: T35, 4H341-AA; conditions: mean of both orientations
T35 chain: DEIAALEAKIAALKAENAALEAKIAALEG

4H_BCR = target: T36, 4H_BCR; conditions: mean of both orientations
T36 chain: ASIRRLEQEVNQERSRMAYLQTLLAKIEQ

4H451-AA = target: T37, 4H451-AA; conditions: mean of both orientations
T37 chain: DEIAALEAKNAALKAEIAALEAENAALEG

4H3905-AA = target: T38, 4H3905-AA; conditions: mean of both orientations
T38 chain: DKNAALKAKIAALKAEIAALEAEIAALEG

4H_GCN4, sequence (chain, as listed by the source): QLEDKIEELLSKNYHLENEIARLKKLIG

## DKIAALKAKNAALKAKIAALKAEIAALEG [4H3049-AA]
4H3974-AA
  interaction score: 1.52
4H3595-AA
  interaction score: -1.01
4H464-AA
  interaction score: 0.452
4H_APH
  interaction score: -1.8
4H3625-AA
  interaction score: -0.0279
4H3587-AA
  interaction score: -0.69
4H3414-AA
  interaction score: -0.414
4H63-AA
  interaction score: -1.15
4H380-AA
  interaction score: -1.68
4H337-AA; mean of both orientations
  interaction score: 1.59
4H3449-AA
  interaction score: -1.67
4H3129-AA
  interaction score: -1.06
O14-AA
  interaction score: 1.66
4H324-AA
  interaction score: -0.645
4H446-AA
  interaction score: -0.416
4H32-AA
  interaction score: 0.0606
4H3049-AA
  interaction score: -0.619
4H3777-AA
  interaction score: -0.0348
4H510-AA
  interaction score: -1.55
4H3939-AA
  interaction score: -0.638
4H3619-AA
  interaction score: -0.754
4H384-AA; mean of both orientations
  interaction score: -1.42
4H_GCN4
  interaction score: -0.802
O11-AA
  interaction score: 0.334
4H483-AA
  interaction score: -1.48
4H3969-AA
  interaction score: -0.09
4H3782-AA
  interaction score: 1.57
4H43-AA
  interaction score: 1.67
4H3629-AA
  interaction score: -0.842
4H3094-AA
  interaction score: 1.63
O13-AA
  interaction score: -1.55
GCN2_T; mean of both orientations
  interaction score: -0.776
4H3915-AA
  interaction score: -1.52
4H3590-AA
  interaction score: 1.4
4H432-AA
  interaction score: -0.00195
4H4038-AA
  interaction score: 1.1
4H341-AA
  interaction score: 0.355
4H_BCR
  interaction score: -2.02
4H451-AA
  interaction score: -1.18

## DEIAALEAKIAALKAENAALEAEIAALEG [4H337-AA]
4H_APH
  interaction score: -1.22
4H3625-AA
  interaction score: -0.713
4H3587-AA; mean of both orientations
  interaction score: -1.2
4H337-AA
  interaction score: -0.119
O14-AA
  interaction score: 1.85
4H510-AA
  interaction score: 1.23
4H384-AA
  interaction score: 1.88
4H_GCN4
  interaction score: -1.01
O11-AA
  interaction score: -0.88
4H43-AA
  interaction score: -0.783
O13-AA
  interaction score: 0.869
GCN2_T
  interaction score: -1.48
4H3590-AA
  interaction score: 0.707
4H3905-AA
  interaction score: -0.0231
4H4038-AA
  interaction score: 2.08
4H_BCR
  interaction score: -0.845
4H451-AA
  interaction score: -0.516

Reference: paper PMC10397247
